Laboratory results published in patent publication US11702666B2, “Cell-based assay for determining activity in the retinoblastoma pathway” (Medical Diagnostic Laboratories, LLC, priority 2017, dated 2023).

Columns and labels:
CDK4 [1] = target: T1, CDK4 (Homo sapiens, UniProt P11802); test: p16 activity assay with CDK4 (NanoBiT, cell line #11); format: cell-based; details: for signal of p16 mutant (in words): loss of function mutants; for Observed function: p16 (CDKN2A) mutants, with CDK4
T1 construct: expressed in transfected cells; host or cells: HEK293 CDK4/CDK6 double-knockout cells stably expressing E2F1-Dp-1-LB (clone #11); early experiments in plain HEK293
Text: (§1) We developed an assay that could measure the interaction between Rb, E2F1 and Dp-1. When the Rb and E2F1 proteins are in close proximity or in complex, a light signal is observed. For the purpose of the assay, split-luciferase complementation was used to measure the interaction between Rb and E2F1, which served as a surrogate measure of CDK4/6 activity and the ability of CDK4/6 to respond to the natural inhibitor p16. The NanoBiT assay system by Promega (Madison, Wis.; Dixon et al., 2015, ACS ChemBiol) was used in the split luciferase complementation design. FIG. 24 depicts a design of a signal system to measure p16 activity. Under basal conditions inside the cell, Rb is active and interacts with the E2F1/Dp-1 heterodimer. However, in the presence of the CDK4 or CDK6, Rb gets phosphorylated and released from the interacting complex. In the presence of the natural inhibitor p16, CDK4/6 is no longer available to phosphorylate Rb and thus promoting the Rb/E2F1-Dp-1 complex formation.
For the purpose of the current assay, the stable cell line #11 that we generated for the CDK activity assay was used and described above. HEK293 CDK DKO cells containing E2F1-Dp-1-LB was transiently transfected with CDK4/CDK6, CyclinD1, and SB-Rb. The transfected cells were then exposed to the natural inhibitor p16 (FIG. 25). When CDK4 or CDK6 is present, a decrease in activity was observed as Rb gets phosphorylated resulting in no Rb/E2F1-Dp-1 interaction. […] The data presented was a sample experiment where each condition was performed in triplicate and represented mean+SD.
The conditions of the assay were optimized by using different p16 amounts and cell numbers (FIGS. 25A and 25B). Based on the data generated, it was decided that using 0.2×10^6 cells/ml and 10 ng of p16 would be preferable.
To examine the ability of the assay to detect variants in CDKN2A that affect function, known loss of function mutants and unknown COSMIC mutants were created. Wild-type or mutated CDKN2A were prepared in a manner similar to that previously indicated. […] Therefore the p16 activity assay is capable of determining the relative activity level of p16 mutants. The data provided is in Luminescence (RLU) of a single experiment with each condition performed in triplicate and represent average+SD. Summary Table 13 reports p16 mutants tested.
In addition to check functional state of p16 mutants, p16 activity assay can be used to look at p16 inhibition response of different CDK4 and CDK6 mutants. Different response of WT CDK4 and CDK6 and hyperactive mutants of CDK4 (R24A) and CDK6 (R31C) is shown on FIG. 28. […] The p16 activity assay is so sensitive and specific that hyperactive CDK4 and CDK6 mutants can show different response to mutant p16.

CDK6 = target: T2, CDK6 (Homo sapiens, UniProt Q00534); test: p16 activity assay with CDK6 (NanoBiT, cell line #11); format: cell-based; details: CDK6, CyclinD1, SB-Rb transfected cell line #11
T2 construct: expressed in transfected cells; host or cells: HEK293 CDK4/CDK6 double-knockout cells stably expressing E2F1-Dp-1-LB (clone #11); early experiments in plain HEK293
Text: as §1
For the purpose of the current assay, the stable cell line #11 that we generated for the CDK activity assay was used and described above. HEK293 CDK DKO cells containing E2F1-Dp-1-LB was transiently transfected with CDK4/CDK6, CyclinD1, and SB-Rb. The transfected cells were then exposed to the natural inhibitor p16 (FIG. 25). […]

Rb/E2F1-Dp-1 complex [2] = test: CDK4 mutant activity / drug resistance in NanoBiT assay, stable cell line #11; format: cell-based, human; details: CDK4 mutants, compared to the WT (being 100%)
Description: A linear expression cassette of mutated CDK4 or CDK6 was generated by PCR mediated overlapping extension method. A pair of forward and reverse primers containing the targeted mutations was designed. The mutated codon was located in the middle of a primer flanked by 18-21 nucleotides on each side. Two PCRs (named as PCR #1 and PCR #2 in FIG. 1) were performed using UF-CMV forward and mutated reverse primers, or mutated forward and BGH-UR primers. The PCR products were cleaned up by ExoSAP-IT® (Affymetrix) to remove unconsumed dNTPs and primers. The treated PCR products were mixed together followed by dilution with water. A second round of PCR was performed using the diluted PCR mixture, and the UF and UR primers (FIG. 1). The amplified products were gel-purified. The DNA concentration was quantitated by the optical density at 260 nm using Nanodrop. The targeted mutations were incorporated in the CDK4 or CDK6 genes during the PCR mediated overlapping extension method. The introduced mutations were confirmed by the DNA sequencing.
To examine the ability of the assay to detect variants in CDK4 or CDK6 that affect function, kinase dead mutants and COSMIC (Catalogue Of Somatic Mutations in cancer) unknown mutants were created. For comparison, hyperactive CDK4 or CDK6 mutants known to be hyperactive due to less binding to natural inhibitor p16 were also created. The mutations in CDK4 or CDK6 were created by site-directed mutagenesis. WT or mutated CDK4 or CDK6 along with the CyclinD1 and SB-Rb were co-transfected, under similar conditions as previously indicated (see FIG. 9).
To examine the specificity of the assay, particular CDK4 kinase dead mutants were created. Modifications to D158 were made by changing aspartate to nonpolar alanine (D158A) or positively charged arginine (D158R). […] The mutations in CDK4 were created by site-directed mutagenesis. WT or mutated CDK4 along with the CyclinD1 and SB-Rb was co-transfected into the #11 cell line, under the same conditions as previously indicated. […] Kinase dead mutants have the high signal due to inability to phosphorylate Rb.
Computer modeling was used to reveal the drug-binding pocket and predict drug-resistant mutants. The mutations in CDK4 and CDK6 were created by site-directed mutagenesis. WT or mutated CDK4 or CDK6 along with the CyclinD1 and SB-Rb was co-transfected into #11 cell line, under the same conditions as previously indicated. […] Dose response curves are presented on FIG. 13A and FIG. 13B. Activity of other mutants was very similar to the WT or KD.
CDK4 and CDK6 mutants with known function and unknown function taken from the COSMIC database were analyzed in the present assay and are summarized in Table 7A and Table 7B. The mutants were classified according to their activity. Table 7A and Table 7B also show the number of counts per mutant in the COSMIC database, type of cancer, and luciferase activity compared to the WT (being 100%).

Rb/E2F1-Dp-1 complex [3] = details: CDK4 mutants, literature ref.; Hyper = hyperactive, KD = kinase dead; cited from earlier work
CDK4 [4] = details: p16 (CDKN2A) mutants; cited from earlier work

T1 sequence (P11802 2-303): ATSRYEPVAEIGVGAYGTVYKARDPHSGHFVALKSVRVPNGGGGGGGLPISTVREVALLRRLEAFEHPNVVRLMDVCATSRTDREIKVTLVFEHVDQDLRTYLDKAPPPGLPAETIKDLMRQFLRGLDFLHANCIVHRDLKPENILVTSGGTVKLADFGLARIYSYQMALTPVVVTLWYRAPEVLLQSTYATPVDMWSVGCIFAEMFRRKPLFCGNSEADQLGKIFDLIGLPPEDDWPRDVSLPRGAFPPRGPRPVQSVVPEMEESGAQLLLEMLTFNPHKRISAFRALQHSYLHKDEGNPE
T2 sequence (Q00534 whole entry): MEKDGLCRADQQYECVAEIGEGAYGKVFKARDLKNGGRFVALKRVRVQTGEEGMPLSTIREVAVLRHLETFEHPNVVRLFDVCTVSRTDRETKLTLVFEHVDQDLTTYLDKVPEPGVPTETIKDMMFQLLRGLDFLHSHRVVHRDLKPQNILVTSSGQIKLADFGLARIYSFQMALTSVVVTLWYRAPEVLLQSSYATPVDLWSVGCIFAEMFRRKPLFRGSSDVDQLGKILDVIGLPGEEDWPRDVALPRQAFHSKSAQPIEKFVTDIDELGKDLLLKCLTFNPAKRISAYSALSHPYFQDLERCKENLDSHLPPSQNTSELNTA

| Molecule | signal of p16 mutant (in words) (CDK4 [1]) | Observed function (CDK4 [1]) | further results |
| --- | --- | --- | --- |
| p16: cyclin-dependent kinase inhibitor 2A, natural inhibitor of CDK4 and CDK6, encoded by CDKN2A |  |  | luminescence with treatment of p16 (CDK4 [1]; CDK4, CyclinD1, SB-Rb transfected cell line #11): increase in luminescence; luminescence with treatment of p16 (CDK6): increase in luminescence |
| p16 A20P: p16 (CDKN2A) mutant (protein) MEPAAGSSMEPSADWLATAPARGRVEEVRALLEAGALPNAPNSYGRRPIQVMMMGSARVAELLLLHGAEPNCADPATLTRPVHDAAREGFLDTLVVLHRAGARLDVRDAWGRLPVDLAEELGHRDVARYLRAAAGGTRGSNHARIDAAEGPSDIPD | close to the baseline |  |  |
| p16 V126D: p16 (CDKN2A) mutant (protein) MEPAAGSSMEPSADWLATAAARGRVEEVRALLEAGALPNAPNSYGRRPIQVMMMGSARVAELLLLHGAEPNCADPATLTRPVHDAAREGFLDTLVVLHRAGARLDVRDAWGRLPVDLAEELGHRDDARYLRAAAGGTRGSNHARIDAAEGPSDIPD | close to the baseline |  |  |
| p16 H83Y: p16 (CDKN2A) mutant (protein) MEPAAGSSMEPSADWLATAAARGRVEEVRALLEAGALPNAPNSYGRRPIQVMMMGSARVAELLLLHGAEPNCADPATLTRPVYDAAREGFLDTLVVLHRAGARLDVRDAWGRLPVDLAEELGHRDVARYLRAAAGGTRGSNHARIDAAEGPSDIPD | close to the baseline |  |  |
| p16 P114L: p16 (CDKN2A) mutant (protein) MEPAAGSSMEPSADWLATAAARGRVEEVRALLEAGALPNAPNSYGRRPIQVMMMGSARVAELLLLHGAEPNCADPATLTRPVHDAAREGFLDTLVVLHRAGARLDVRDAWGRLLVDLAEELGHRDVARYLRAAAGGTRGSNHARIDAAEGPSDIPD | close to the baseline |  |  |
| CDK4 K22A: CDK4 mutant, literature hyperactive (protein, UniProt P11802 2-303, looked up, variant K22A) Cyclin-dependent kinase 4: ATSRYEPVAEIGVGAYGTVYAARDPHSGHFVALKSVRVPNGGGGGGGLPISTVREVALLRRLEAFEHPNVVRLMDVCATSRTDREIKVTLVFEHVDQDLRTYLDKAPPPGLPAETIKDLMRQFLRGLDFLHANCIVHRDLKPENILVTSGGTVKLADFGLARIYSYQMALTPVVVTLWYRAPEVLLQSTYATPVDMWSVGCIFAEMFRRKPLFCGNSEADQLGKIFDLIGLPPEDDWPRDVSLPRGAFPPRGPRPVQSVVPEMEESGAQLLLEMLTFNPHKRISAFRALQHSYLHKDEGNPE |  |  | Luc. activity (/wt) (Rb/E2F1-Dp-1 complex [2]): 67.5%; Reported activity (Rb/E2F1-Dp-1 complex [3]): Hyper |
| p16 A148T: p16 (CDKN2A) mutant (protein) MEPAAGSSMEPSADWLATAAARGRVEEVRALLEAGALPNAPNSYGRRPIQVMMMGSARVAELLLLHGAEPNCADPATLTRPVHDAAREGFLDTLVVLHRAGARLDVRDAWGRLPVDLAEELGHRDVARYLRAAAGGTRGSNHARIDATEGPSDIPD |  | Normal | Literature reported function (CDK4 [4]): Normal |
| p16 R144C: p16 (CDKN2A) mutant (protein) MEPAAGSSMEPSADWLATAAARGRVEEVRALLEAGALPNAPNSYGRRPIQVMMMGSARVAELLLLHGAEPNCADPATLTRPVHDAAREGFLDTLVVLHRAGARLDVRDAWGRLPVDLAEELGHRDVARYLRAAAGGTRGSNHACIDAAEGPSDIPD |  | Normal | Literature reported function (CDK4 [4]): Normal |
| p16 S56N: p16 (CDKN2A) mutant (protein) MEPAAGSSMEPSADWLATAAARGRVEEVRALLEAGALPNAPNSYGRRPIQVMMMGNARVAELLLLHGAEPNCADPATLTRPVHDAAREGFLDTLVVLHRAGARLDVRDAWGRLPVDLAEELGHRDVARYLRAAAGGTRGSNHARIDAAEGPSDIPD |  | Normal |  |
| p16 D14G: p16 (CDKN2A) mutant (protein) MEPAAGSSMEPSAGWLATAAARGRVEEVRALLEAGALPNAPNSYGRRPIQVMMMGSARVAELLLLHGAEPNCADPATLTRPVHDAAREGFLDTLVVLHRAGARLDVRDAWGRLPVDLAEELGHRDVARYLRAAAGGTRGSNHARIDAAEGPSDIPD |  | Normal |  |
| p16 D108N: p16 (CDKN2A) mutant (protein) MEPAAGSSMEPSADWLATAAARGRVEEVRALLEAGALPNAPNSYGRRPIQVMMMGSARVAELLLLHGAEPNCADPATLTRPVHDAAREGFLDTLVVLHRAGARLDVRNAWGRLPVDLAEELGHRDVARYLRAAAGGTRGSNHARIDAAEGPSDIPD |  | Normal |  |
| p16 A36G: p16 (CDKN2A) mutant (protein) MEPAAGSSMEPSADWLATAAARGRVEEVRALLEAGGLPNAPNSYGRRPIQVMMMGSARVAELLLLHGAEPNCADPATLTRPVHDAAREGFLDTLVVLHRAGARLDVRDAWGRLPVDLAEELGHRDVARYLRAAAGGTRGSNHARIDAAEGPSDIPD |  | Normal |  |
| p16 G101W: p16 (CDKN2A) mutant (protein) MEPAAGSSMEPSADWLATAAARGRVEEVRALLEAGALPNAPNSYGRRPIQVMMMGSARVAELLLLHGAEPNCADPATLTRPVHDAAREGFLDTLVVLHRAWARLDVRDAWGRLPVDLAEELGHRDVARYLRAAAGGTRGSNHARIDAAEGPSDIPD |  | Reduced |  |
